Experiments:
[1] = test system: DPH1; experiment: Quantitative RT-PCR and Western blot for DPH1; type: cell-based, human
[2] = test system: BPDCN patient-derived xenografts; type: in vivo, mouse; conditions: for time to progression of peripheral blood leukemia burden: two cycles
[3] = test system: CAL1 and THP1 cells; experiment: Short-term cytotoxicity of azacitidine in parental and SL-401 resistant cells; type: cell-based, human
Procedure: Next, it was tested if azacitidine cooperated with tagraxofusp in AML and BPDCN cells. First, given that azacitidine acts as a cytotoxic chemotherapy at higher doses, experiments were performed to determine whether tagraxofusp-resistant cells were more sensitive to short-term treatment, similar to what was described above (FIGS. 6-8).

[4] = test system: eEF2; experiment: In vitro ADP-ribosylation assay in cell lysates with biotin-NAD+; type: biochemical, human
Procedure: A biochemical assay was next performed to test the ability of tagraxofusp to catalyze ADP-ribosylation in cellular lysates in the presence of exogenous biotin-tagged […] (NAD) as a source of ADP-ribose.
To determine the biochemical mechanism of SL-401 resistance and restoration of sensitivity upon non-cytotoxic treatment with azacitidine, an in vitro ADP-ribosylation assay was developed to perform lysates harvested from human leukemia cells. Briefly, 50 μg of cell lysates were harvested and mixed with 5 uM NAD+-Biotin (R&D Systems; 4670-500-01), in the presence or absence of 100 ng of SL-401 (or DT) in 35 uL of reaction buffer containing 20 mM Tris-HCl pH 7.4, 1 mM EDTA, and 50 mM DTT. The mixture is incubated for 15 minutes at room temperature and then the reaction is halted by boiling in SDS loading buffer. An SDS polyacrylamide gel is run and proteins are transferred to a PVDF membrane as in a Western blot. Protein levels are determined by traditional western blot. ADP-ribosylation of target proteins is detected by streptavidin-HRP (Abcam ab7403). […] Top blot is ADP-ribose, presumably on eEF2 (band is at same position as eEF2 protein detected by antibody); next, are levels of eEF2, DPH1, and beta-actin protein.

[5] = test system: DPH1 locus; experiment: Bisulfite pyrosequencing of DPH1 locus CpG sites; type: cell-based, human; conditions: azacitidine 300 nM, 2 days on/2 days off over 2 weeks; resistant cells
Procedure: DPH1 expression is known to be regulated by DNA methylation and sensitivity to Pseudomonas exotoxin A was previously shown to be modulated by CpG methylation in the DPH1 locus. To test whether loss of DPH1 is mediated by DNA methylation, bisulfite pyrosequencing of the DPH1 locus in CpG islands (30 individual CpG sites) was performed by EpigenDx analysis (available on the World Wide Web at epigendx.com/d/service/pyrosequencing/) and the % methylated cytosine at each CpG site was quantitated. This analysis was performed in THP1 parental and 2 SL-401 resistant subclones, and CAL1 parental and 2 SL-401 resistant subclones. Data plotted in FIG. 12 are from THP1 cells, and are representative of CAL1. […] Given this finding, it was believed that 5-azacitidine, a DNA methyltransferase inhibitor or “DNA hypomethylating agent” can reverse the aberrant DPH1 hypermethylation and restore DPH1 expression. The parental and resistant cells were also treated with non-cytotoxic, low doses of azacitidine, so called “epigenetic dosing” (300 nM, 2 days on/2 days off) over 2 weeks to determine if the hypermethylation was reversible by DNA methyltransferase inhibition.

[6] = test system: CAL1, SHI1, and THP1 parental and tagraxofusp-resistant cells; experiment: MTT viability after conventional chemotherapy (cytarabine, vincristine); type: cell-based, human; conditions: SL-401 resistant vs parental CAL1, SHI1, THP1
Procedure: CAL1, SHI1, and THP1 parental and tagraxofusp-resistant cells were tested in MTT viability assays after exposure to increasing doses of cytarabine (AraC) or vincristine (VCR).

[7] = test system: mouse models of human leukemia; conditions: in vivo; cited from earlier work
[8] = test system: THP1 human AML cells; experiment: In situ histochemical ADP-ribosylation assay; type: cell-based; conditions: resistant vs parental THP1
[9] = test system: IL3R (e.g., CD123) positive AML cell lines and primary leukemia cells; conditions: cited from earlier work
[10] = test system: THP1 human AML cells; experiment: Single cell flow cytometric ADP-ribosylation assay; type: cell-based; conditions: resistant vs parental THP1
Procedure: THP1 human AML cells are shown that are parental SL-401 sensitive or SL-401 resistant.
For example, in another embodiment, a flow ADP ribosylation assay may be used to measure the functional activity of the entire diphthamide synthesis pathway (FIG. 20). […] The cells were stained with antibodies (e.g., CD45-APC, CD123-PE) at concentration of 1:100, incubated for 30 min at 4° C., and then washed with FACS buffer 5 minutes. The cells were fixed with 3% paraformaldehyde (PFA), incubated for 20 min at RT, and washed with PBS for 5 minutes. The cells were permeabilized with Saponin (1:10 in H2O, BD Biosciences-“Perm/Wash” solution) for 20 min at 4° C., washed with PBS for 5 minutes, and applied with endogenous Streptavidin block (BD Biosciences) for 20 min at RT. The cells were then washed with PBS for 5 minutes and applied with endogenous Biotin block (BD Biosciences) for 20 min at RT. The cells were then washed with PBS for 5 minutes and applied with protein block for 30 min at RT. The cells were washed twice with FACS buffer. Each wash was for 5 minutes. SL-401/biotin solution was added to the samples and the samples was incubated for 30 min at RT. […] The cells were washed 5 minutes in FACS buffer, resuspended in 300 μl FACS buffer and level of the ADP was detected with the flow assay.

[11] = rodents and monkeys; cited from earlier work
[12] = test system: parental or tagraxofusp-resistant CAL1 cells; experiment: Confocal microscopy of internalization of fluorescently tagged SL-401; type: cell-based, human; conditions: 30-60 minutes after exposure, resistant vs parental cells
[13] = 14 days from initiation of treatment, vs vehicle

Molecule: Nc1ncn([C@@H]2O[C@H](CO)[C@@H](O)[C@H]2O)c(=O)n1 [azacitidine, 5-azacytidine]
- DPH1 protein levels after azacitidine ([1]; Western blot, resistant THP1 clones): partially or fully restored
- DPH1 mRNA expression ([1]; azacitidine 300 nM, 2 days on/2 days off over 2 weeks, quantitative RT-PCR): partially restored mRNA expression
- time to progression of peripheral blood leukemia burden ([2]; four-arm study): prolonged the time to progression of peripheral blood leukemia burden
- azacitidine dose response, resistant vs parental ([3]; CAL1 parental and 3 SL-401 resistant subclones): increased sensitivity in resistant cells
- azacitidine cytotoxicity, resistant vs parental ([3]; THP1, short-term (72 hour), cytotoxic doses): more sensitive to cytotoxic doses of azacitidine than parental cells
- tagraxofusp-mediated ADP ribosylation after azacitidine ([4]; long-term azacitidine-treated resistant THP1 cells): complete restoration of tagraxofusp-mediated ADP ribosylation activity
- DPH1 CpG DNA methylation [5]: reduction in the DPH1 CpG DNA hypermethylation

Molecule: Nc1ccn([C@@H]2O[C@H](CO)[C@@H](O)[C@@H]2O)c(=O)n1 [cytarabine]
- sensitivity of SL-401 resistant cells to chemotherapy [6]: more sensitive to chemotherapy compared to the parental cells

Molecule: CC[C@]1(O)C[C@H]2CN(CCc3c([nH]c4ccccc34)[C@@](C(=O)OC)(c3cc4c(cc3OC)N(C=O)[C@H]3[C@@](O)(C(=O)OC)[C@H](OC(C)=O)[C@]5(CC)C=CCN6CC[C@]43[C@@H]65)C2)C1 [vincristine]
- sensitivity of SL-401 resistant cells to chemotherapy [6]: more sensitive to chemotherapy compared to the parental cells

B1: tagraxofusp (protein)
chain: MGADDVVDSSKSFVMENFSSYHGTKPGYVDSIQKGIQKPKSGTQGNYDDDWKGFYSTDNKYDAAGYSVDNENPLSGKAGGVVKVTYPGLTKVLALKVDNAETIKKELGLSLTEPLMEQVGTEEFIKRFGDGASRVVLSLPFAEGSSSVEYINNWEQAKALSVELEINFETRGKRGQDAMYEYMAQACAGNRVRRSVGSSLSCINLDWDVIRDKTKTKIESLKEHGPIKNKVISESPNKTVSEEKAKQYLEEFHQTALEHPELSELKTVTGTNPVFAGANYAAWAVNVAQVIDSETADNLEKTTAALSILPGIGSVMGIADGAVHHNTEEIVAQSIALSSLMVAQAIPLVGELVDIGFAAYNFVESIINLFQVVHNSYNRPAYSPGHKTRPHMAPMTQTTSLKTSWVNCSNMIDEIITHLKQPPLPLLDFNNLNGEDQDILMENNLRRPNLEAFNRAVKSLQNASAIESILKNLLPCLPLATAAPTRHPIHIKDGDWNEFRRKLTFYLKTLENAQAQQTTLSLAW
- anti-tumor efficacy [7]: in vivo anti-tumor efficacy
- SL-401-dependent ADP ribosylation activity [8]: diminished in the SL-401 resistant cells
- spleen size [2, 13]: reduction in splenomegaly
- splenic infiltration [2, 13]: decreased splenic infiltration of human BPDCN cells
- mice remaining at 200 days ([2]; four-arm study, n=10 mice per arm): one
- progression-free survival ([2]; one cycle, daily for 5 days, three PDXs combined, vehicle 12 days): 48 days
- overall survival ([2]; one cycle, daily for 5 days, three PDXs combined, vehicle 35 days): 71 days
- reduction of leukemia burden vs vincristine/dexamethasone ([2]; peripheral blood flow cytometry, most animals): longer sustained reduction in human BPDCN leukemia burden
- residual CD45+CD123+ leukemia at 200 days ([2]; peripheral blood, spleen, and bone marrow): detectable leukemia cells in spleen and bone marrow
- effect of a second cycle ([2]; second cycle at progression): effective
- response of PDX cohorts ([2]; three cohorts, 100 ug/kg/day intraperitoneally x5 days): prolonged progression-free and overall survival
- time to progression of peripheral blood leukemia burden ([2]; four-arm study): prolonged the time to progression of peripheral blood leukemia burden
- cytotoxicity [9]: potently and selectively cytotoxic
- ADP-ribosylation in lysates ([4]; parental cells): caused ADP-ribosylation of a single protein
- ADP-ribosylation in lysates ([4]; tagraxofusp-resistant cells): unable to catalyze ADP-ribosylation of any proteins in the lysate
- SL-401-dependent ADP ribosylation activity [10]: diminished in the SL-401 resistant cells
- safety [11]: Safety was shown at therapeutically active doses

B2: Tagraxofusp-APC: APC-tagged, fluorescently labeled tagraxofusp used for confocal microscopy (conjugate)
chain: MGADDVVDSSKSFVMENFSSYHGTKPGYVDSIQKGIQKPKSGTQGNYDDDWKGFYSTDNKYDAAGYSVDNENPLSGKAGGVVKVTYPGLTKVLALKVDNAETIKKELGLSLTEPLMEQVGTEEFIKRFGDGASRVVLSLPFAEGSSSVEYINNWEQAKALSVELEINFETRGKRGQDAMYEYMAQACAGNRVRRSVGSSLSCINLDWDVIRDKTKTKIESLKEHGPIKNKVISESPNKTVSEEKAKQYLEEFHQTALEHPELSELKTVTGTNPVFAGANYAAWAVNVAQVIDSETADNLEKTTAALSILPGIGSVMGIADGAVHHNTEEIVAQSIALSSLMVAQAIPLVGELVDIGFAAYNFVESIINLFQVVHNSYNRPAYSPGHKTRPHMAPMTQTTSLKTSWVNCSNMIDEIITHLKQPPLPLLDFNNLNGEDQDILMENNLRRPNLEAFNRAVKSLQNASAIESILKNLLPCLPLATAAPTRHPIHIKDGDWNEFRRKLTFYLKTLENAQAQQTTLSLAW
- drug internalization [12]: internalized equally in resistant and parental cells

From US11674950B2, “Methods determining and treating cellular resistance to ADP-rtbosylating toxin” (priority 2017, dated 2023)
